The target of test [1] is human IgG1 (human). Description: Biacore (SPR), format not described.
The target of test [2] is CD64+V172-28z CAR (CD64 with insertion of Valine at 172 - TMCD8 - CD28 - truncated CD3z) on primary T lymphocytes (human). Description: cell-based or functional assay.
The target of test [3] is CD64K130S CAR (4-1BB-CD3z) on primary T lymphocytes (human). Description: cell-based or functional assay.
Test [4] concerns the target CD64wt-Bbz CAR (native CD64 - TMCD8 - 4-1BB - CD3z) on primary T lymphocytes (human). The test is described as follows: cell-based or functional assay.
The target in test [5] is CD64K130Y CAR (CD64 K130Y - TMCD8 - 4-1BB - full CD3z) on primary T lymphocytes (human). Description: cell-based or functional assay.
Test [6] addresses CD64R175A CAR (CD64 R175A - TMCD8 - CD28 - CD3z) on primary T lymphocytes (human). The test is described as follows: cell-based or functional assay.

In test [1], “CD64 with K130H mutation, as measured by Biacore (receptor)” yielded a Kd of 53 nM and a fold lower affinity for IgG1 than native CD64 of 5 fold.

Turning to “CD64 with K130S, as measured by Biacore (receptor)”, in test [1], the Kd was determined as 74 nM and the fold reduction of the affinity of CD64 for IgG1 worked out at 7 fold.

Regarding “anti-CD20 antibody (Rituximab clone), IgG1”, in test [2], the % inhibition 20%HS vs 10%FBS (24h) came out at 20.4%; the % inhibition 20%HS vs 10%FBS (3 days) worked out at 40.2%; the % inhibition 20%HS vs 10%FBS (7 days) is 51.7%; the % inhibition (72h, 20% human serum vs 10% FBS) was 31.5%. In test [2], the gamma IFN secretion in proliferation assay, 10% FBS, mean (3 days) amounted to 438000; the gamma IFN secretion in proliferation assay, 10% FBS, mean (7 days) came to 753000; the gamma IFN secretion in proliferation assay, 20% human serum, mean (3 days) is 262000; the gamma IFN secretion in proliferation assay, 20% human serum, mean (7 days) is 364000. In test [2], this substance displayed a gamma interferon secretion, 24h co-culture with Raji, 10% FBS, mean of 11500; a gamma interferon secretion, 24h co-culture with Raji, 20% human serum, mean of 9130; a gamma interferon secretion, 72h co-culture with Raji, 10% FBS, mean of 399000; a gamma interferon secretion, 72h co-culture with Raji, 20% human serum, mean of 273000. In test [2], this substance registered an inhibition of proliferation by human serum of 38%. Moreover, in test [3], the cytokine secretion, 24h co-culture with Raji, antibody 2 ug/mL, 2,5% Human Serum, mean turned out to be 5350; the cytokine secretion, 24h co-culture with Raji, antibody 2 ug/mL, 10% FBS, mean worked out at 5410; the cytokine secretion, 24h co-culture with Raji, antibody 2 ug/mL, 20% Human Serum, mean amounted to 2730; the percent inhibition 20%HS vs 10%FBS was found to be 49.5%. In test [4], this substance gave a % inhibition 20%HS vs 10%FBS (24h) of 90.3%; a % inhibition 20%HS vs 10%FBS (3 days) of 91.7%; a % inhibition 20%HS vs 10%FBS (7 days) of 69.5%; a % inhibition (72h, 20% human serum vs 10% FBS) of 92.8%. In test [4], this substance gave a gamma IFN secretion in proliferation assay, 10% FBS, mean (3 days) of 203000; a gamma IFN secretion in proliferation assay, 10% FBS, mean (7 days) of 107000; a gamma IFN secretion in proliferation assay, 20% human serum, mean (3 days) of 16900; a gamma IFN secretion in proliferation assay, 20% human serum, mean (7 days) of 32600. In test [4], this substance came in with a gamma interferon secretion, 24h co-culture with Raji, 10% FBS, mean of 12000; a gamma interferon secretion, 24h co-culture with Raji, 20% human serum, mean of 1170; a gamma interferon secretion, 72h co-culture with Raji, 10% FBS, mean of 123000; a gamma interferon secretion, 72h co-culture with Raji, 20% human serum, mean of 8810. In test [4], this substance registered an inhibition of proliferation by human serum of 6 fold.

On to “anti-CD20 antibody IgG1 mutated at Leucine 235 to Alanine”, for which, in test [5], the cytokine secretion, 24h co-culture with Raji, antibody 2 ug/mL, 2,5% Human Serum, mean stood at 2720; the cytokine secretion, 24h co-culture with Raji, antibody 2 ug/mL, 10% FBS, mean was found to be 6270; the cytokine secretion, 24h co-culture with Raji, antibody 2 ug/mL, 20% Human Serum, mean was found to be 292; the percent inhibition 20%HS vs 10%FBS was 95.3%.

On to anti-CD22 antibody (m971 clone), IgG1, for which, in test [5], the cytokine secretion, 24h co-culture with Raji, antibody 2 ug/mL, 10% FBS, mean stood at 20900; the cytokine secretion, 24h co-culture with Raji, antibody 2 ug/mL, 20% Human Serum, mean was determined as 9580; the percent inhibition 20%HS vs 10%FBS turned out to be 54.2%. Besides, in test [6], the cytokine secretion, 24h co-culture with Raji, antibody 2 ug/mL, 10% FBS, mean is 55900; the cytokine secretion, 24h co-culture with Raji, antibody 2 ug/mL, 20% Human Serum, mean was found to be 27000; the percent inhibition 20%HS vs 10%FBS stood at 51.6%.

In turn, “native CD64 (human high affinity Fc gamma receptor alpha chain), as measured by Biacore” gave a Kd in test [1] of 10 nM.

The values are drawn from patent EP3875478A1.
